Reference: PMC4409382, “Structural Analysis of the 14-3-3ζ/Chibby Interaction Involved in Wnt/β-Catenin Signaling” (PLoS ONE, 2015)
Square brackets hold non-standard residues; d marks the D form. Ends that are not written are not given here. pS = N[C@@H](COP(=O)(O)O)C(=O)O

T1: 14-3-3ζ K49A (human, UniProt P63104 1-245, K49A)
T1 construct: N-terminal glycine retained after TEV cleavage of the His tag; 14-3-3 zeta, human, with the K49A mutation introduced into 14-3-3ζ (the full-length construct); they say that all 14-3-3ζ constructs were purified in the same way; source: E. coli, purified (Ni Sepharose, TEV cleavage, second Ni Sepharose pass); not shown: His tag, N-terminal, cleaved
T1 sequence: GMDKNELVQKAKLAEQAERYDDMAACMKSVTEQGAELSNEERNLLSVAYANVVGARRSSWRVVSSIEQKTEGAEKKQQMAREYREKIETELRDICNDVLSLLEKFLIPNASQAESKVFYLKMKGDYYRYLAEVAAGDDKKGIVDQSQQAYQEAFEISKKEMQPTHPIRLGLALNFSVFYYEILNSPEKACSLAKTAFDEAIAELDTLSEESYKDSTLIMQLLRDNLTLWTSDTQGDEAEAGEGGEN

T2: 14-3-3ζ (human, UniProt P63104 1-245)
T2 construct: N-terminal glycine retained after TEV cleavage of the His tag; 14-3-3 zeta, human, ORF purchased from GeneCopoeia, full-length construct; Dimer (~56 kDa); the stoichiometry n counts on the 14-3-3 monomer; also called full-length 14-3-3ζ; source: E. coli BL21 (DE3) pLysS, purified (Ni Sepharose, TEV cleavage, second Ni Sepharose pass); not shown: His tag, N-terminal, cleaved
T2 sequence: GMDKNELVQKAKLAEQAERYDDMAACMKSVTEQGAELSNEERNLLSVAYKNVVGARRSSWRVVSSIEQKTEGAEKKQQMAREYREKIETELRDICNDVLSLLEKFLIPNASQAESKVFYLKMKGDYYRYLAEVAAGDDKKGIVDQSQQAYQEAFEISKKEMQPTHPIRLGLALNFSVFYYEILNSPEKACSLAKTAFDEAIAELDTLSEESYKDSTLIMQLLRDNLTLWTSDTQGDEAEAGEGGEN

T3: 14-3-3ζΔC12 (human, UniProt P63104 1-233)
T3 construct: N-terminal glycine retained after TEV cleavage of the His tag; 14-3-3 zeta, human, full-length 14-3-3ζ with the 12 C-terminal residues deleted; source: E. coli BL21 (DE3) pLysS, purified (Ni Sepharose, TEV cleavage, second Ni Sepharose pass); not shown: His tag, N-terminal, cleaved
T3 sequence: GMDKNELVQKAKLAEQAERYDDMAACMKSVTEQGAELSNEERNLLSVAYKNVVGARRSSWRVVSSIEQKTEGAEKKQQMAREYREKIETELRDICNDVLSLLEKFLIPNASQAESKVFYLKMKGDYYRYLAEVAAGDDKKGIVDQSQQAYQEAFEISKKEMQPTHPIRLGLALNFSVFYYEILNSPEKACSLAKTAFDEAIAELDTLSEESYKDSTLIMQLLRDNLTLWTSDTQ

T4: 14-3-3ζ (human, full-length) (human, UniProt P63104 1-245)
T4 construct: N-terminal glycine retained after TEV cleavage of the His tag; 14-3-3ζ, human, ORF bought from GeneCopoeia, in Gateway pDEST17; full-length; Dimer in the crystal; the ITC stoichiometry counts on the 14-3-3 monomer; also called WT 14-3-3ζ; source: E. coli BL21 (DE3) pLysS, purified (Ni Sepharose, TEV cleavage, second Ni Sepharose pass); not shown: His tag, N-terminal, cleaved
T4 sequence: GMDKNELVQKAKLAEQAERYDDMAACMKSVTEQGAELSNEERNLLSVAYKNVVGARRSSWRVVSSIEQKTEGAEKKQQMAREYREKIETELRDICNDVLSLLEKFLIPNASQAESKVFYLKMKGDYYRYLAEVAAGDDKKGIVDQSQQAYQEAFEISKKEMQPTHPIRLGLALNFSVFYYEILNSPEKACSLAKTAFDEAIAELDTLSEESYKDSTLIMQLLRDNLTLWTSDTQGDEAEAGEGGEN

T5: 14-3-3ζΔC12 (human, UniProt P63104 1-233)
T5 construct: N-terminal glycine retained after TEV cleavage of the His tag; 14-3-3ζ, human, full-length construct with the 12 C-terminal residues deleted; Unlabelled for ITC; 15N, 13C, 2H labelled for the NMR titrations; also called 14-3-3ζ with the C-terminal 12 residues removed; source: E. coli BL21 (DE3) pLysS, purified (Ni Sepharose, TEV cleavage, second Ni Sepharose pass); not shown: His tag, N-terminal, …
T5 sequence: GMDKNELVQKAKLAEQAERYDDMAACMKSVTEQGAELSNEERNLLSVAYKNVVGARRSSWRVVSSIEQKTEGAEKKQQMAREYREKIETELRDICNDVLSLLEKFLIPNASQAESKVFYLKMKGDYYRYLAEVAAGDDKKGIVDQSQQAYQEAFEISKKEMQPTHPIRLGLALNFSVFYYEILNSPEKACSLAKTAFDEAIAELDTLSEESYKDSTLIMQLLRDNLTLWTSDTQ

T6: 14-3-3ζ K49A (human, UniProt P63104 1-245, K49A)
T6 construct: N-terminal glycine retained after TEV cleavage of the His tag; 14-3-3ζ, human, with the K49A mutation introduced into 14-3-3ζ; source: purified by Ni Sepharose with TEV cleavage as all 14-3-3ζ constructs; not shown: His tag, N-terminal, cleaved
T6 sequence: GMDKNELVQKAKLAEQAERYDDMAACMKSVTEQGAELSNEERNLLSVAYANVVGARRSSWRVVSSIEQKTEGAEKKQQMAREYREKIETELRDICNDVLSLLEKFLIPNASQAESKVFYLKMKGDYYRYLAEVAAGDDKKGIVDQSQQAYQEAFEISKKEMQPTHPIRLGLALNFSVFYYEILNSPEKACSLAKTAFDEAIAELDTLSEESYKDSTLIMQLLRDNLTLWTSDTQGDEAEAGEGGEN


What was measured:
Conditions in all cases: both partners purified
[1] = molecular target: T1, 14-3-3ζ K49A; experiment: ITC; duplicate set of titrations; 5 uL aliquots of ~1-2 mM peptide titrated into the 1.4 mL cell with ~100-200 uM 14-3-3ζ; 25 °C; 50 mM sodium phosphate, 100 mM NaCl, 1 mM DTT, pH 6.8; one-site model; n per 14-3-3 monomer
[2] = molecular target: T2, 14-3-3ζ; experiment: as above
[3] = molecular target: T3, 14-3-3ζΔC12; experiment: as above
[4] = molecular target: T4, 14-3-3ζ (human, full-length); experiment: ITC; VP-ITC, 25°C; ~1-2 mM peptide titrated in 5 uL aliquots into ~100-200 uM 14-3-3ζ in the cell; 50 mM sodium phosphate, 100 mM NaCl, 1 mM DTT, pH 6.8; one-site model; in duplicate
[5] = molecular target: T5, 14-3-3ζΔC12; experiment: as above
[6] = molecular target: T6, 14-3-3ζ K49A; experiment: as above

Kd [1]	stoichiometry N [1]	Kd [2]	stoichiometry N [2]	Kd [4]	dH [4]	stoichiometry N [4]	Kd [6]	dH [6]	stoichiometry N [6]	Binder	also measured
5.5 µM	1.07	4.9 µM	0.94							KTPPRKSA[pS]LSNLHSLDR (Chibby (Cby), human, residues 12-29; also called Cby 18-mer WT; source: synthetic peptide, bought: GenScript USA Inc)	Kd [3]: 8.5 µM; stoichiometry N [3]: 1.02
1.8 µM	0.97	0.38 µM	1.08							KTPPRKSA[pS]LPNLHSLDR (Chibby (Cby), human, residues 12-29 with S22P; also called Cby 18-mer S22P; source: synthetic peptide, bought: TUFTS University Core Facility)	
		25 µM	1.05							KTPPRKSA[pS]LSNAHSLDR (Chibby (Cby), human, residues 12-29 with L24A; also called Cby L24A 18-mer; source: synthetic peptide, bought (GenScript USA Inc. or TUFTS University Core Facility)) [Cby 18-mer L24A]	
		17.5 µM	0.96							KTPPRKSA[pS]LS-NH2 (N-terminus assumed; SMILES CC(C)C[C@H](NC(=O)[C@H](COP(=O)(O)O)NC(=O)[C@H](C)NC(=O)[C@H](CO)NC(=O)[C@H](CCCCN)NC(=O)[C@H](CCCNC(=N)N)NC(=O)[C@@H]1CCCN1C(=O)[C@@H]1CCCN1C(=O)[C@@H](NC(=O)[C@@H](N)CCCCN)[C@@H](C)O)C(=O)N[C@@H](CO)C(N)=O, Chibby (Cby), human, residues 12-22; source: synthetic peptide, bought: TUFTS University Core Facility) [pCby 11-mer]	
				4.6 µM	-4.35 ± 0.05 kcal/mol	0.96	3.8 µM	-4.16 ± 0.05 kcal/mol	1.01	KTPPRKSA[pS]LSNLHSLDR (Chibby (Cby), human, residues 12-29; free NH2 and COOH ends; also called Cby 18-mer WT; WT Cby 18-mer; source: synthetic peptide, bought: GenScript USA Inc)	Kd [5]: 6.8 µM; dH [5]: -3.35 ± 0.06 kcal/mol; stoichiometry N [5]: 1.04
				0.36 µM	-8.03 ± 0.02 kcal/mol	1.05	1.9 µM	-7.13 ± 0.03 kcal/mol	1.07	KTPPRKSA[pS]LPNLHSLDR (Chibby (Cby), human, residues 12-29 with S22P; free NH2 and COOH ends; also called Cby 18-mer S22P; source: synthetic peptide, bought: TUFTS University Core Facility)	
